Fewer inactive variants are shown than the library holds.
Columns and labels:
biotinyl-Phe-oxazolone = test: self-aminoacylation, catalytic enhancement (BFO) (fold over background); higher = more active; k-Seq, kA / k0A0; sequences stand for … in GGGAAUGGAUCCACAUCUACGAAUUC…UUCACUGCAGACUUGACGAAGCUG
Procedure, shortened: (§1)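 The uncatalyzed rate is the low-activity peak of a bimodal Gaussian fit, and catalytic enhancement is median kA divided by it. The kA values came from pseudo-first-order fits, with 1000 bootstraps, of per-sequence fraction reacted measured by streptavidin capture, triplicate qPCR and Illumina sequencing. Mutagenized RNA pools with a 21-nt variable region (0.43 μM) were reacted with each biotinyl-aminoacyl-oxazolone at 2–1250 μM in 50 μL HEPES/NaCl/KCl/MgCl2/CaCl2 buffer with 5% acetonitrile, pH 6.9–7.0, for 90 minutes at room temperature.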

biotinyl-Leu-oxazolone = test: self-aminoacylation, catalytic enhancement (BLO) (fold over background); higher = more active; k-Seq, kA / k0A0; sequences stand for … in GGGAAUGGAUCCACAUCUACGAAUUC…UUCACUGCAGACUUGACGAAGCUG
Procedure, shortened: as §1

biotinyl-Trp-oxazolone = test: self-aminoacylation, catalytic enhancement (BWO) (fold over background); higher = more active; k-Seq, kA / k0A0; sequences stand for … in GGGAAUGGAUCCACAUCUACGAAUUC…UUCACUGCAGACUUGACGAAGCUG
Procedure, shortened: as §1

biotinyl-Met-oxazolone = test: self-aminoacylation, catalytic enhancement (BMO) (fold over background); higher = more active; k-Seq, kA / k0A0; sequences stand for … in GGGAAUGGAUCCACAUCUACGAAUUC…UUCACUGCAGACUUGACGAAGCUG
Procedure, shortened: as §1

biotinyl-Val-oxazolone = test: self-aminoacylation, catalytic enhancement (BVO) (fold over background); higher = more active; k-Seq, kA / k0A0; sequences stand for … in GGGAAUGGAUCCACAUCUACGAAUUC…UUCACUGCAGACUUGACGAAGCUG
Procedure, shortened: as §1

biotinyl-Ile-oxazolone = test: self-aminoacylation, catalytic enhancement (BIO) (fold over background); higher = more active; k-Seq, kA / k0A0; sequences stand for … in GGGAAUGGAUCCACAUCUACGAAUUC…UUCACUGCAGACUUGACGAAGCUG
Procedure, shortened: as §1

| Sequence | self-aminoacylation (biotinyl-Phe-oxazolone) | self-aminoacylation (biotinyl-Leu-oxazolone) | self-aminoacylation (biotinyl-Trp-oxazolone) | self-aminoacylation (biotinyl-Met-oxazolone) | self-aminoacylation (biotinyl-Val-oxazolone) | self-aminoacylation (biotinyl-Ile-oxazolone) |
| --- | --- | --- | --- | --- | --- | --- |
| CCACACUGCAAGCAACCGGUC [Fam1B.1 aminoacylation ribozyme variant] | 0.966 | 1.25 | 1.07 | 1.49 | 1.79 | 1.53 |
| CCACACUUCAAACAGUCGGUC [Fam1B.1 aminoacylation ribozyme variant] | 1.09 | 0.622 | 0.848 | 0.735 | 0.945 | 0.75 |
| UUUACCAUGGUCAUCGAGUGA [Fam2.1 aminoacylation ribozyme variant] | 20.9 | 7.39 | 9.91 | 7.28 | 4.57 | 4.43 |
| AUUACCCUGGGCAUCGAGCGA [Fam2.1 aminoacylation ribozyme variant] | 7.68 | 0.813 | 1.43 | 1.08 | 1.48 | 1.26 |
| ACUCACCUAGGUCAUCGGGCG [Fam2.2 aminoacylation ribozyme variant] | 2.07 | 3.85 | 2.63 | 2.66 | 2.63 | 3.12 |
| AUUCUCCUAGUUCAUCGGGUG [Fam2.2 aminoacylation ribozyme variant] | 32.7 | 5.88 | 5.28 | 4.59 | 3.46 | 3.84 |
| AUAACCCUGGUCAUCGAGUUA [Fam2.1 aminoacylation ribozyme variant] | 4.86 | 2.86 | 1.12 | 2.5 | 1.34 | 1.7 |
| AUUACCCUGGUCAUCGAGUGU [Fam2.1 aminoacylation ribozyme variant] | 785 | 105 | 104 | 108 | 37.4 | 31.7 |
| CUACGUCAAACAAUCGGGCUG [Fam1A.1 aminoacylation ribozyme variant] | 0.86 | 2.05 | 2.32 | 2.42 | 2.33 | 1.9 |
| AUUCAAGUAGGUCAUCGGGUG [Fam2.2 aminoacylation ribozyme variant] | 36.6 | 7.04 | 5.33 | 5.19 | 3.43 | 3.73 |
| CCACACUUCAAACAAUCGGUG [Fam1B.1 aminoacylation ribozyme variant] | 4.88 | 6.19 | 4.19 | 4.77 | 3.01 | 2.96 |
| AUUACCCUGGUCUUCGAGCGA [Fam2.1 aminoacylation ribozyme variant] | 0.753 | 1.11 | 1.16 | 1.09 | 1.23 | 0.901 |
| AUUCACCUAGGUCGUCGGGAG [Fam2.2 aminoacylation ribozyme variant] | 0.385 | 1.27 | 0.943 | 0.924 | 1.36 | 0.982 |
| AUUACCCAGGGCAUCGAGUGA [Fam2.1 aminoacylation ribozyme variant] | 21.4 | 6.33 | 6.92 | 6.06 | 3.57 | 3.27 |
| AUUAGCGUGGUCAUCGAGUGA [Fam2.1 aminoacylation ribozyme variant] | 13.5 | 4.67 | 5 | 3.55 | 3.1 | 2.8 |
| AAGGUUGCUAAUAGUCGCAAG [Fam3.1 aminoacylation ribozyme variant] | 6.56 | 1.25 | 2.64 | 1.29 | 1.23 | 1.32 |
| AUUCAGCUAGGUCAUCGGUUG [Fam2.2 aminoacylation ribozyme variant] | 5.67 | 1.07 | 1.25 | 1.16 | 0.865 | 0.882 |
| AUACACCUAGGUCAUUGGGUG [Fam2.2 aminoacylation ribozyme variant] | 13.3 | 2.14 | 3.17 | 2.36 | 2.24 | 2.02 |
| CUCCUUGAAACAAUCGGUCUG [Fam1A.1 aminoacylation ribozyme variant] | 1.25 | 1.18 | 1.73 | 1.31 | 1.19 | 1.1 |
| CCACACUACAAGCAAUCGGCC [Fam1B.1 aminoacylation ribozyme variant] | 1.99 | 1.57 | 1.78 | 2.7 | 2.06 | 2.44 |
| CUACUUCAGACAAUCGGUCAG [Fam1A.1 aminoacylation ribozyme variant] | 1.26 | 0.872 | 0.771 | 0.73 | 0.83 | 0.805 |
| CUACUACAAAAAAUCGGUCUG [Fam1A.1 aminoacylation ribozyme variant] | 0.76 | 0.678 | 0.762 | 0.857 | 0.765 | 0.774 |
| GCAGACUUCAAGCAAUCGGUC [Fam1B.1 aminoacylation ribozyme variant] | 119 | 4.28 | 49.8 | 2.82 | 2.67 | 3.19 |
| AAUCACCUUGGUCAUCGGGUG [Fam2.2 aminoacylation ribozyme variant] | 43.2 | 6.76 | 8.74 | 6.06 | 5.18 | 4.22 |
| CUUACCCUGGGCAUCGAGUGA [Fam2.1 aminoacylation ribozyme variant] | 20.7 | 7.09 | 6.01 | 5.55 | 3.33 | 2.57 |
| AUUACCCUCGUCAUCAAGUGA [Fam2.1 aminoacylation ribozyme variant] | 6.71 | 2.87 | 4.2 | 2.96 | 2.19 | 1.92 |

| Sequence | self-aminoacylation (biotinyl-Phe-oxazolone) | self-aminoacylation (biotinyl-Leu-oxazolone) | self-aminoacylation (biotinyl-Trp-oxazolone) | self-aminoacylation (biotinyl-Met-oxazolone) | self-aminoacylation (biotinyl-Val-oxazolone) | self-aminoacylation (biotinyl-Ile-oxazolone) |
| --- | --- | --- | --- | --- | --- | --- |
| CCACACUUCAGGCCAUCGGUC [Fam1B.1 aminoacylation ribozyme variant] | 7.44 | 1.77 | 1.69 | 1.94 | 2.49 | 2.37 |
| AAGUUUGCUAAUAGGCGCAAA [Fam3.1 aminoacylation ribozyme variant] | 1.74 | 1.74 | 1.48 | 1.63 | 1.1 | 1.46 |
| CUACUCCAAACAGUCGGUCUG [Fam1A.1 aminoacylation ribozyme variant] | 3.1 | 1.1 | 0.323 | 0.958 | 1.06 | 0.953 |
| CCACACUUCAAGCAAUGGUUC [Fam1B.1 aminoacylation ribozyme variant] | 0.776 | 0.596 | 0.678 | 0.61 | 0.574 | 0.619 |
| AUACACUUAGGUCAUCGGGUG [Fam2.2 aminoacylation ribozyme variant] | 36.6 | 6.18 | 5.82 | 5.5 | 3.3 | 3.82 |
| AUUACCCUGGUCAAUGAGUGA [Fam2.1 aminoacylation ribozyme variant] | 30.9 | 6.7 | 8.83 | 7.16 | 3.7 | 3.46 |
| AUUCACCUAGGUCAUUGGGUG [Fam2.2 aminoacylation ribozyme variant] | 20.1 | 4.03 | 3.18 | 3.26 | 2.29 | 2.31 |
| AUGACCCUGGUCAUCGAGUGA [Fam2.1 aminoacylation ribozyme variant] | 451 | 55.8 | 51.6 | 58.9 | 19.3 | 18.6 |
| CUACUUCAAGCAAGCGGUCUG [Fam1A.1 aminoacylation ribozyme variant] | 0.897 | 0.958 | 0.849 | 0.867 | 0.854 | 1.12 |
| CCACACUUAACGCAAUCGGUC [Fam1B.1 aminoacylation ribozyme variant] | 0.826 | 0.986 | 1.11 | 0.874 | 1.11 | 1.08 |
| AUUGCCCAGGUCAUCGAGUGA [Fam2.1 aminoacylation ribozyme variant] | 18.4 | 4.81 | 5.7 | 5.51 | 3.16 | 2.66 |
| AUUACCGUGGUCGUCGAGUGA [Fam2.1 aminoacylation ribozyme variant] | 2.81 | 1.18 | 0.591 | 1.09 | 1.06 | 1.2 |
| AAAUUUGCUGAUAGUCGCAAG [Fam3.1 aminoacylation ribozyme variant] | 2.14 | 1.86 | 2.23 | 1.97 | 1.69 | 1.73 |
| CCACAAUUCAAGCAAUCGGUA [Fam1B.1 aminoacylation ribozyme variant] | 1.33 | 1.43 | 1.13 | 1.19 | 1.17 | 1.26 |
| AUUACCCACGUCAUCGAGUGA [Fam2.1 aminoacylation ribozyme variant] | 15.6 | 4.38 | 4.53 | 4.44 | 2.9 | 2.46 |
| AUUAGCCUGGUCAGCGAGUGA [Fam2.1 aminoacylation ribozyme variant] | 9.96 | 5.47 | 4.85 | 3.65 | 3.39 | 3.09 |
| AUUACCCCGGCCAUCGAGUGA [Fam2.1 aminoacylation ribozyme variant] | 20.7 | 5.86 | 5.24 | 4.03 | 4.34 | 2.68 |
| AUGUUUGCUAAUAGUCGCAAA [Fam3.1 aminoacylation ribozyme variant] | 4.87 | 1.54 | 2.71 | 1.75 | 1.59 | 2.2 |
| AUUCACCCAGGUCAUCAGGUG [Fam2.2 aminoacylation ribozyme variant] | 0.632 | 1.08 | 0.804 | 1 | 1.01 | 0.991 |
| AUGCACCUAGGUCAUCCGGUG [Fam2.2 aminoacylation ribozyme variant] | 57.6 | 7.51 | 7.68 | 6.24 | 4.06 | 4.42 |
| CCACACUUCGAGAAAUCGGUC [Fam1B.1 aminoacylation ribozyme variant] | 0.511 | 1.12 | 0.812 | 1.18 | 0.976 | 0.951 |
| AAGAUUGCUAAUAGUCGCAGG [Fam3.1 aminoacylation ribozyme variant] | 7.75 | 2.05 | 1.83 | 1.49 | 1.64 | 1.34 |
| AAGUGUGGUAAUAGUCGCAAG [Fam3.1 aminoacylation ribozyme variant] | 1.5 | 1.48 | 1.15 | 1.15 | 1.16 | 1.43 |
| CCACACUGCAAGCAUUCGGUC [Fam1B.1 aminoacylation ribozyme variant] | 8.26 | 2.58 | 3.51 | 2.04 | 2.96 | 2.37 |
| AACUUUGCUAAUAGUCACAAG [Fam3.1 aminoacylation ribozyme variant] | 3.95 | 1.87 | 2.52 | 1.47 | 2.09 | 2.2 |

Source: the supplement of paper PMC9233669
